Source: PMC11927444 (Journal for Immunotherapy of Cancer, 2025)

T1: Recombinant Syndecan-1 (2780-SD) (human, UniProt P18827 23-254)
T1 sequence (looked up): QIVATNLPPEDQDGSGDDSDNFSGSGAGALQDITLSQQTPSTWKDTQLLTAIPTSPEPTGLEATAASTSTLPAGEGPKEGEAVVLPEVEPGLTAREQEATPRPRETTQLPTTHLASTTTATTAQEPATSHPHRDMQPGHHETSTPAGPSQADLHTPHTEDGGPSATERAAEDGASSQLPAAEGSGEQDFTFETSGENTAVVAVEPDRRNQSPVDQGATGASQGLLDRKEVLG

B1: Recombinant human TREM2 (9256-T2-50) (receptor, UniProt Q9NZC2 19-174, looked up)
chain: HNTTVFQGVAGQSLQVSCPYDSMKHWGRRKAWCRQLGEKGPCQRVVSTHNLWLLSFLRRWNGSTAITDDTLGGTLTITLRNLQPHDAGLYQCQSLHGSEADTLRKVLVEVLADPLDHRDAGDLWFPGESESFEDAHVEHSISRSLLEGEIPFPPTS
B2: Biotinylated IL-34 (ligand, human, UniProt Q6ZMJ4 19-242, looked up)
chain: LGNEPLEMWPLTQNEECTVTGFLRDKLQYRSRLQYMKHYFPINYKISVPYEGVFRIANVTRLQRAQVSERELRYLWVLVSLSATESVQDVLLEGHPSWKYLQEVETLLLNVQQGLTDVEVSPKVESVLSLLNAPGPNLKLVRPKALLDNCFRVMELLYCSCCKQSSVLNWQDCEVPSPQSCSPEPSLQYAATQLYPPPPWSPSSPPHSTGSVRPVRAQGEGLLP
modifications: biotin (biotinylated, site not stated)

Assays:
Experiment in all cases: ELISA
Biotinylated IL-34 = target: B2
[1] = target: Recombinant human CSF-1R-Fc (329-MR-100) (human, UniProt P07333 20-517)
Sequence of Recombinant human CSF-1R-Fc (329-MR-100) (P07333 20-517): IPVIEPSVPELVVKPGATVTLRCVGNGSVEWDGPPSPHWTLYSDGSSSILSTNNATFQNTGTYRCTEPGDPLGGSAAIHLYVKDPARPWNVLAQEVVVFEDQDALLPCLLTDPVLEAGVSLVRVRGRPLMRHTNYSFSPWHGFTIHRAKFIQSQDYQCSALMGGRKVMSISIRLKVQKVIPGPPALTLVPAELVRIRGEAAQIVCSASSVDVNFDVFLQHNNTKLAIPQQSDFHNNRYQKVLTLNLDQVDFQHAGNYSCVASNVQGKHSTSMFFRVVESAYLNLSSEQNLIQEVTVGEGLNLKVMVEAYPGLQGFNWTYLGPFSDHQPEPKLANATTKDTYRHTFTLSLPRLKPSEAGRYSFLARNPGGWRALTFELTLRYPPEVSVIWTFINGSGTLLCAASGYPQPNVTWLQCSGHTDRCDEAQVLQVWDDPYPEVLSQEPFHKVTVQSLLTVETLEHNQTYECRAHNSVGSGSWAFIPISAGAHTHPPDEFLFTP

[2] = target: T1, Recombinant Syndecan-1 (2780-SD)

| binding result (Biotinylated IL-34) | binding result [1] | binding result [2] | Binder |
| --- | --- | --- | --- |
| binds | – | – | B1 |
| – | binds | binds | B2 |
